In test [1] the target is T1, PD-L2 on CHO-PD-L2 cells (Promega blockade system) (UniProt Q9BQ51 20-273, limits assumed).
T1 sequence (looked up): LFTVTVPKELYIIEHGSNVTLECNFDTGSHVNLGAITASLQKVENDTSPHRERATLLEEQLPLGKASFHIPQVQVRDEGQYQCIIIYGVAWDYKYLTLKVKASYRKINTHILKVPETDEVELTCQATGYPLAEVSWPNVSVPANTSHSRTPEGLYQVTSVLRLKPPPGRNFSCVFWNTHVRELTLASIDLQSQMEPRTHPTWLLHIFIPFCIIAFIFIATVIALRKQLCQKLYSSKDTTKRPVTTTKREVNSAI
The test is described as follows: cell-based or functional assay.

For test [2], the target named is T2, Mouse PD-L2-Fc (mouse, UniProt Q9WUL5 20-219, limits assumed).
T2 construct: also called murine PD-L2; not shown: Fc part of the fusion
T2 sequence (looked up): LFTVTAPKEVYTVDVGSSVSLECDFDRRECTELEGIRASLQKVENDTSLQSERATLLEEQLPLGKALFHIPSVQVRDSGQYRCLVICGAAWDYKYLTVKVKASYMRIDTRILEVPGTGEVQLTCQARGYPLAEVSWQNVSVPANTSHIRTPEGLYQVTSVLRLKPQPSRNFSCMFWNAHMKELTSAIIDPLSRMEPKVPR
The test is described as follows: column 'Species cross-reactivity'.

Test [3] addresses T3, Human PD-L2-Fc (human, UniProt Q9BQ51 20-220).
T3 construct: not shown: Fc part of the fusion
T3 sequence: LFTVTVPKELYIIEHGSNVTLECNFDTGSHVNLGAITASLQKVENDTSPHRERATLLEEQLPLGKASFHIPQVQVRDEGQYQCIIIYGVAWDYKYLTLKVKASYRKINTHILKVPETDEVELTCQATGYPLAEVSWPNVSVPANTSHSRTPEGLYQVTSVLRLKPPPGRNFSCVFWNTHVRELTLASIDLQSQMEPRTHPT
The test is described as follows: ForteBio Octet, IgG on sensor, Fc-fusion antigen in solution (avid). Here is the method: (§1) ForteBio KD measurements—ForteBio affinity measurements were performed on an Octet RED384 generally as previously described (sec, e.g., Estep et al., 2013). Briefly, ForteBio affinity measurements were performed by loading IgGs on-line onto AHQ sensors. Sensors were equilibrated off-line in assay buffer for 30 min and then monitored on-line for 60 seconds for baseline establishment. Sensors with loaded IgGs were exposed to 100 nM antigen for 3 minutes, and afterwards were transferred to assay buffer for 3 min for off-rate measurement. For monovalent affinity assessment Fabs were used instead of IgGs. For this assessment the unbiotinylated Fc fusion antigen was loaded on-line onto the AHQ sensors. Sensors were equilibrated off-line in assay buffer for 30 min and then monitored on-line for 60 seconds for baseline establishment. Sensors with loaded antigen were exposed to 100 nM Fab for 3 minutes, and afterwards they were transferred to assay buffer for 3 min for off-rate measurement. All kinetics were analyzed using the 1:1 binding model.

A further test deals with T4, Cyno PD-L2-Fc (cyno, UniProt A0A2K5U5Z4 20-219).
T4 construct: not shown: Fc part of the fusion
T4 sequence: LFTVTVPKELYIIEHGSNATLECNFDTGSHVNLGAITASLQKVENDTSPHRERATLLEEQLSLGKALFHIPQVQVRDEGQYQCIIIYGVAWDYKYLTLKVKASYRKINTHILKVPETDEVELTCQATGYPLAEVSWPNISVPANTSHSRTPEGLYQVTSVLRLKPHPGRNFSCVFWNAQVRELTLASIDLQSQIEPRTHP
The test is described as above. Here is the method: as §1

Test [4] addresses T5, Human PD-L1-Fc (human, UniProt Q9NZQ7 19-238).
T5 construct: not shown: Fc part of the fusion
Described as above. As for the experimental part: as §1

Another test deals with T6, Cyno PD-L1-Fc (cyno, UniProt G7PSE7 19-238).
T6 construct: not shown: The Fc part of the fusion and any linker to it
T6 sequence (G7PSE7 entry or part of it limits assumed): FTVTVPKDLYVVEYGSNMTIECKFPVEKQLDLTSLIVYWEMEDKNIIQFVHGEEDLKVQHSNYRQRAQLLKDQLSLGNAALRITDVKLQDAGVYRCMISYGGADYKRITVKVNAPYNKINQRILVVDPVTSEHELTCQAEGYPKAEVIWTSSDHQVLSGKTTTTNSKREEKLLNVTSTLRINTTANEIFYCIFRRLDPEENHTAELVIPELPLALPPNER
The test is described as above. As for the experimental part: as §1

Test [5] concerns the target T7, Mouse PD-L1-Fc (mouse, UniProt Q9EP73 19-238, limits assumed).
T7 construct: also called murine PD-L1; not shown: Fc part of the fusion
The description is as above. As for the experimental part: as §1

The target in test [6] is PD-L2 on CHO-PD-L1/PDL2 cells (Promega blockade system). The test is described as follows: cell-based or functional assay.
The target in test [7] is PD-L1 on CHO-PD-L1/PDL2 cells (Promega blockade system). The test is described as follows: cell-based or functional assay.
Test [8] has as its target T3, Human PD-L2-Fc. The test is described as follows: ForteBio Octet, Fc-fusion antigen on sensor, Fab in solution (monovalent). Here is the method:
as §1
(BLI is a label-free optical method that tracks binding on a fibre tip over time.)

For test [9], the target named is T5, Human PD-L1-Fc. The description is as above. Here is the method:
as §1

Test [10] concerns the target T7, Mouse PD-L1-Fc. The test is described as follows: column 'Species cross-reactivity'.
The target of test [11] is T2, Mouse PD-L2-Fc. The test is described as follows: ForteBio Octet, IgG on sensor, Fc-fusion antigen in solution (avid). Here is the method: as §1
The target of test [12] is PD-L1 on CHO-PD-L1 cells (Promega blockade system) (UniProt Q9NZQ7 19-290, limits assumed). The test is described as follows: cell-based or functional assay.

T7 sequence (Q9EP73 19-238 limits assumed): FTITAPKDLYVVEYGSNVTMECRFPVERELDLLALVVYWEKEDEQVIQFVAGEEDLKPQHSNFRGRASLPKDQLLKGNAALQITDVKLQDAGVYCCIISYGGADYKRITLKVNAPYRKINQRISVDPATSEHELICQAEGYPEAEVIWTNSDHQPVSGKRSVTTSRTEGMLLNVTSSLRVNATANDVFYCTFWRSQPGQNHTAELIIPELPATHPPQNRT

B1: ADI-20236 (antibody, V domains shown)
VH: QVQLVQSGAEVKKPGSSVKVSCKASGGTFSSHAISWVRQAPGQGLEWMGGIIPIFGWALYAQKFQGRVTITADESTSTAYMELSSLRSEDTAVYYCARPGDHRASHFDYWGQGTLVTVSS
VL: DIQMTQSPSSVSASVGDRVTITCRASQGISSWLAWYQQKPGKAPKLLIYAASSLQSGVPSRFSGSGSGTDFTLTISSLQPEDFATYYCQQANSFPITFGGGTKVEIK
notes: Vk1-12 common light chain; also called PD-L2-C1-1; cLC-PDL2 (22731)
Take B1: the “EC50 (read off the curve); luciferase fold induction, Promega CHO-PD-L2 / PD-1 Jurkat assay [Cont'd]” value in test [1] is around 0.2 nM. In addition, the binding result with Mouse PD-L2-Fc [2] is listed as “binds”; with Human PD-L1-Fc [4] it was “no binding (tested: 100 nM)”; with Cyno PD-L1-Fc it was “no binding (tested: 100 nM)”; in the test with Mouse PD-L1-Fc [5], “no binding (tested: 100 nM)”. The Kd turned out to be 0.416 nM with Human PD-L2-Fc [3] and 0.64 nM with Cyno PD-L2-Fc.

B2: DiPDL candidate C1 (bispecific antibody, V domains shown)
VH 1: QVQLVQSGAEVKKPGASVKVSCKASGGTFRSYAIQWVRQAPGQGLEWMGWIIPGFGTANYAQKFQGRVTITADESTSTAYMELSSLRSEDTAVYYCARELSHGGLSYWGQGTLVTVSS
VH 2: B1 VH
VL: B1 VL
For B2, the “EC50 (read off the curve); luciferase fold induction, Promega CHO-PD-L1/PD-L2 / PD-1 Jurkat assay, combined blockade of PD-L1 and PD-L2 [Cont'd]” value in test [6] and in [7] was around 0.2 nM each time.

B3: ADI-20225 Fab (Fab, V domains shown)
VH: B2 VH 1
VL: B1 VL
notes: also called cLC-PDL1 (22731) Fab
In the case of B3, the binding result in the test with Human PD-L2-Fc [8] is “no binding (tested: 100 nM)”. Moreover, in the test with Human PD-L1-Fc [9], binding was characterised by a dissociation constant (Kd) of 0.833 nM.

B4: ADI-20225 (antibody, V domains shown)
VH: B2 VH 1
VL: B1 VL
notes: Vk1-12 common light chain; also called PD-L1-C1-1; cLC-PDL1 (22731)
As to B4, the binding result with Mouse PD-L1-Fc [10] was “binds”; with Human PD-L2-Fc [3], “no binding (tested: 100 nM)”; with Cyno PD-L2-Fc, “no binding (tested: 100 nM)”; with Mouse PD-L2-Fc [11], “no binding (tested: 100 nM)”. Also, the results for the Kd with Human PD-L1-Fc [4] and with Cyno PD-L1-Fc were 0.223 nM and 0.237 nM, respectively. Besides, in [12], the “EC50 (read off the curve); luciferase fold induction, Promega CHO-PD-L1 / PD-1 Jurkat assay” value was around 0.1 nM.

B5: ADI-20236 Fab (Fab, V domains shown)
VH: B1 VH
VL: B1 VL
notes: also called cLC-PDL2 (22731) Fab
With B5, binding in the test with Human PD-L2-Fc [8] was put at a Kd of 0.541 nM. In the test with Human PD-L1-Fc [9], the binding result is reported as “no binding (tested: 100 nM)”.

B6: ADI-20230 (antibody, V domains shown)
VH: QVQLVQSGAEVKKPGSSVKVSCKASGGTFSSYFISWVRQAPGQGLEWMGQIIPNVGTANYAQKFQGRVTITADESTSTAYMELSSLRSEDTAVYYCARDQTAKAHLVWGQGTLVTVSS
VL: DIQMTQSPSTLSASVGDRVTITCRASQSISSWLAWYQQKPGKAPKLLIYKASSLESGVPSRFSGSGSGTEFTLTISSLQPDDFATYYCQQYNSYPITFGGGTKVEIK
notes: Vk1-05 common light chain; also called PD-L1-C2-1; cLC-PDL1 (22726)
With B6, the binding result with Human PD-L2-Fc [3], with Cyno PD-L2-Fc, in the test with Mouse PD-L2-Fc [11] and with Mouse PD-L1-Fc [5] was “no binding (tested: 100 nM)” each time. Besides, the Kd came out at 0.205 nM with Human PD-L1-Fc [4] and 0.264 nM with Cyno PD-L1-Fc. Further, the “EC50 (read off the curve); luciferase fold induction, Promega CHO-PD-L1 / PD-1 Jurkat assay” value in [12] is around 0.1 nM.

B7: ADI-20230 Fab (Fab, V domains shown)
VH: B6 VH
VL: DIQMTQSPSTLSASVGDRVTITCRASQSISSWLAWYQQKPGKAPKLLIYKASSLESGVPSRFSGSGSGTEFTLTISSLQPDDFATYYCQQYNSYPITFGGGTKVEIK
notes: also called cLC-PDL1 (22726) Fab
On to B7, for which the binding result with Human PD-L2-Fc [8] is reported as “no binding (tested: 100 nM)”. In addition, in the test with Human PD-L1-Fc [9], the Kd is 0.823 nM.

B8: ADI-20241 (antibody, V domains shown)
VH: QVQLVQSGAEVKKPGSSVKVSCKASGGTFSEYAIVWVRQAPGQGLEWMGGIIPLFGTANYAQKFQGRVTITADESTSTAYMELSSLRSEDTAVYYCARPLDRRIVAFDIWGQGTMVTVSS
VL: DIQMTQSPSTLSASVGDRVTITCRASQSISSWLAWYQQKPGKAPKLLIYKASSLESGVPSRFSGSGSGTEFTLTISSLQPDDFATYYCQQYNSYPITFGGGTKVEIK
notes: Vk1-05 common light chain; also called PD-L2-C2-1; cLC-PDL2 (22726)
Consider B8, for which, in [1], the “EC50 (read off the curve); luciferase fold induction, Promega CHO-PD-L2 / PD-1 Jurkat assay [Cont'd]” value is around 0.2 nM. The binding result with Mouse PD-L2-Fc [2] was “binds”; with Human PD-L1-Fc [4], “no binding (tested: 100 nM)”; with Cyno PD-L1-Fc it was “no binding (tested: 100 nM)”; with Mouse PD-L1-Fc [5] it was “no binding (tested: 100 nM)”. For the same molecule, the Kd was found to be 0.487 nM with Human PD-L2-Fc [3] and 0.253 nM with Cyno PD-L2-Fc.

B9: ADI-20241 Fab (Fab, V domains shown)
VH: B8 VH
VL: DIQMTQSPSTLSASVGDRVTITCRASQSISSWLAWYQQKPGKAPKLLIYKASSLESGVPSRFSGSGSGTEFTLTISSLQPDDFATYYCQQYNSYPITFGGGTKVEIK
notes: also called cLC-PDL2 (22726) Fab
B9 came in with a Kd with Human PD-L2-Fc [8] of 1.99 nM. In addition, the binding result with Human PD-L1-Fc [9] was “no binding (tested: 100 nM)”.

B10: DiPDL candidate C2 (bispecific antibody, V domains shown)
VH 1: B6 VH
VH 2: B8 VH
VL: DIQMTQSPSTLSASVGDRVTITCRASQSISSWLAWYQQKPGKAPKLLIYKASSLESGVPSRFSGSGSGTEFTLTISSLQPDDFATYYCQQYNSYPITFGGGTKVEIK
Regarding B10, the “EC50 (read off the curve); luciferase fold induction, Promega CHO-PD-L1/PD-L2 / PD-1 Jurkat assay, combined blockade of PD-L1 and PD-L2 [Cont'd]” value in test [6] and in [7] was around 0.6 nM in each case.

Usually Kd stands for the concentration at which binding is half-saturated. A higher Kd goes with weaker binding.

(Values after US20250129167A1 (University of Texas, published 2025).)
